Test results reported in paper PMC11706625, “Structural and bioinformatics analyses identify deoxydinucleotide-specific nucleases and their association with genomic islands in gram-positive bacteria” (Nucleic Acids Research, 2025).

What was measured:
[1] = biological target: NrnC from Bartonella henselae (Bartonella henselae); assay: SEC-MALS; 1-2 mg/ml (~40-80 uM) protein injected on Superdex 200 Increase 10/300 GL in 25 mM HEPES-NaOH, 150 mM NaCl pH 7.5, room temperature
[2] = biological target: the molecule itself; assay: as above

Molecule NrnC from Bartonella henselae (enzyme) has a stoichiometry N [1] of 8.

B1: NrnC homolog from Okeania (Cyanobacteria) (enzyme)
chain: MSDFQVCDRDLTEAILSDYLQADSIAVDTETMGLLPWRDRLCLVQLCDAQGKVTAIRIEKGQQEAPNLKQLMEATGIVKIFHFARFDVAMLQHHLDIKVSPIFCTKIASKLARTYTGKHGLKDLVMELEKVELDKSAQSSDWGNAENLTEEQLSYAANDVRYLLSVKEKLIKMLKREERWELAQQCFECLPVFVGLDLLQYKDIFEH
In the case of B1, the “stoichiometry N” value [2] is reported as 8.
